Results reported in patent publication US20160017022A1 (CORNELL UNIVERSITY, published 2016).

Target: Alexa 594 labeled His-tagged protoxin (Clostridium perfringens epsilon protoxin) (Clostridium perfringens, UniProt Q02307 33-328)
Assay: fluorescent toxin staining, MAL loss-of-function mouse

B1: mouse MAL (endogenous, in wild-type mouse tissues; absent in MAL KO mice) (receptor)
chain: MAPAAASGGSTLPSGFSVFTTFPDLLFVCEFVFGGLVWILIASSLVPLPLAQGWVMFVSVFCFVATTSLMILYIIGTHGGETSWITLDAAYHCVAALFYLSASVLEALATISMFDGFTYKHYHENIAAVVFAYVVTLIYVVHAVFSLIRWKSS
notes: whole, on cells
Does B1 bind?
Result: binds
